Common to all, as to format: physicochemical
Data set [1] is described as follows: T1 and T2 relaxivity measurements at 9.4 T (400 MHz NMR). On the procedure:
The effectiveness of a contrast agent depends on its “relaxivity”, which is measured in units of mM^−1 s^−1, and quantifies how much a given concentration of the contrast agent improves water relaxation rates. T1 and T2 relaxivities are denoted r1 and r2, respectively, and are calculated according to eqn (1):1 [drawing 1] Here, Ti and Ti^0 are the relaxation times in the presence and absence of the contrast agent, respectively, and [C] is the concentration of the contrast agent. […] The relaxivity of a contrast agent depends not only on the properties of the molecule but also on the strength of the magnetic field used for the measurement. Whereas early MRI instruments were relatively weak (<1 T), the modern clinical standard has risen to 1–3 T, wth an increasing number of even more powerful instruments (>3 T) in recent years. Thus, we performed relaxivity experiments at both the most clinically relevant field strengths 1.4 T and at the more cutting-edge field strength of 9.4 T.
10% D 2O (assay buffer). S tock solutions of swArM in assay buffer was prepared at1.11, 0.83, 0.56, and 0.28 mM. Apo- and holo-swArM samples were prepared from the same stock by adding either 20 μL assay buffer or 20 μL 0. 1 M Gln in assay buffer, to 180 μL of protein solution, respectively. Final protein concentrations were verified using the molar extinction coefficient ε28 0 = 25.9 mM -1 cm -1.
B. NM R M easu r ements . Relaxivities of all variants were determined at 37 °C from spectra taken at 9.4 T (400 mHz) using a Varian Inova 400 -MHz NMR spectrometer equipped with a Nalorac, 5 mm, DR probe. Select variants were also investigated at 32°C at 1.4 T (60 mHz) using a Nanalysis NMReady60 Pro instrument. Measurements were typically performed on 4 diffe rent concentrations of contrast agent and on the same buffer with no contrast agent. Temperature- dependent relaxivity measurements were performed using a Varian Inova 500-MHz NMR spectrometer, equipped with a Vari an, 5-mm, TR PFG probe with inverse proton detection. Temperature- dependent relaxivity was determined using either two concen trations of contrast agent ( 0. 5 and 1. 0 mM ) or t hree (0. 3, 0. 6, and 0.9 mM) . The temperature was calibrated using the 1H NMR signal of ethylene glycol.20 T1 measurements were performed using the inversion recovery method21 and T2 measurements were performed using the Carr–Purcell–Meiboom –G ill (CPMG) p ulse […]
Six or more pulse delay times (τ) were chosen to ensure coverage of the Ti under observation, and the delay between pulse sequences was set to at least 5-times T1.
Optimized 90° and 180° pulse widths were determined on the day of the experiment, and typically spanned 16‒2 0 μs (90° pulse width) and 32‒4 0 μs (180° pulse width). The delay in the CPMG pulse sequence was set to at least 50 times the 180° pulse width to allow at least four echo loops .
C. A n al ysi s . To determine Ti, data were analyzed via MestReNova software. For each spectrum, an integration was performed over the water peak, and the values obtained (dependent variable) were plotted against τ (independent variable). […]
then fit to a monoexponential decay according to Eq. 1. From these analyses, we obtain Ti for each sample concentration and type.
The quantity described by Eq. 2, where Ti at zero added sample is T0, was then plotted against the swArM concentration and a linear regression model was applied. The slope of this line gives the contrast agent relaxivity ri.

A short description of data set [2]: Stability of swArM samples prepared in PBS buffer for relaxivity studies. From the text:
Next, we set out to investigate alternative ligands to coordinate Ln^3+ ions. As shown in Chart 1, we investigated two DOTA derivatives (DOTA-mal^N and DOTA-mal^C) as well as an acyclic version of DOTA, diethylene triamine pentaacetic acid (DTPA), and a six-coordinate version of the eight-coordinate DOTA ligand, nonane triacetic acid (NOTA). […] This ligand has previously been tested with Gd^3+ as an MRI contrast agent in PBS buffer, with no reported stability issues.[40] The fact that conjugation to our protein decreased the kinetic stability of Gd(NOTA) exemplifies the impact of the specific protein environment.

Data set [3] can be described thus: T1 and T2 relaxivity measurements at 1.4 T (60 MHz NMR).
[4] abbreviates: PBS buffer pH 7.4, 37 °C, with Gln.
Where [5] appears, read: PBS buffer pH 7.4, 37 °C, without Gln.
The mark [6] stands for this setting: PBS buffer pH 7.4, 32 °C, with Gln.
Setting [7] is: PBS buffer pH 7.4, 32 °C, without Gln.

This note sets out measurements from paper PMC12699829, “Development of a glutamine-responsive MRI contrast agent” (Chemical Science, 2025).

B1: [Gd(DTPA-malN)]72: swArM: Gd complex of maleimide-functionalized DTPA attached at Cys72 of T72C-GlnBP (conjugate, UniProt P0AEQ3 23-248, looked up, variant T72C)
Glutamine-binding periplasmic …: ADKKLVVATDTAFVPFEFKQGDKYVGFDVDLWAAIAKELKLDYELKPMDFSGIIPALQTKNVDLALAGITICDERKKAIDFSDGYYKSGLLVMVKANNNDVKSVKDLDGKVVAVKSGTGSVDYAKANIKTKDLRQFPNIDNAYMELGTNRADAVLHDTPNILYFIKTAGNGQFKAVGDSLEAQQYGIAFPKGSDELRDKVNGALKTLRENGTYNEIYKKWFGTEPK
modifications: Gd(DTPA-mal) at Cys72
notes: swArM: Gd complex of maleimide-functionalized DTPA attached at Cys72 of T72C-GlnBP
On to B1, for which, in data set [1] (37 °C), the “Holo/Apo % r1 Change” value is 3 ± 3% and the “Holo/Apo % r2 Change” value was 10 ± 10%. Also, in data set [1] (setting [4]), the “r1 (Holo)” value amounted to 4.14 ± 0.05 mM⁻¹ s⁻¹ and the “r2 (Holo)” value is 72 ± 4 mM⁻¹ s⁻¹. In data set [1] (setting [5]), the “r1 (Apo)” value came out at 4.0 ± 0.1 mM⁻¹ s⁻¹ and the “r2 (Apo)” value amounted to 65 ± 4 mM⁻¹ s⁻¹. In data set [2], the “stability of the swArM in PBS buffer (metal loss, precipitate)” value is listed as “did not observe loss of metal to solution over time”. In addition, in data set [3] (32 °C), the “Holo/Apo % r1 Change” value worked out at 7 ± 4% and the “Holo/Apo % r2 Change” value stood at 11 ± 6%. In data set [3] (setting [6]), the “r1 (Holo)” value turned out to be 17.8 mM⁻¹ s⁻¹ and the “r2 (Holo)” value was 30.3 ± 0.9 mM⁻¹ s⁻¹. In data set [3] (setting [7]), the “r1 (Apo)” value was found to be 16.7 mM⁻¹ s⁻¹ and the “r2 (Apo)” value came out at 27 ± 1 mM⁻¹ s⁻¹.
